Experimental data: patent publication US20100291705A1, “ANTIGEN EXPOSING MICELLE AND UNORDERED AGGREGATE” (EURO-DIAGNOSTICA AB, priority 2007, published 2010)

Molecular target: T1, (Homo sapiens, UniProt P02749)
T1 sequence (P02749 20-345): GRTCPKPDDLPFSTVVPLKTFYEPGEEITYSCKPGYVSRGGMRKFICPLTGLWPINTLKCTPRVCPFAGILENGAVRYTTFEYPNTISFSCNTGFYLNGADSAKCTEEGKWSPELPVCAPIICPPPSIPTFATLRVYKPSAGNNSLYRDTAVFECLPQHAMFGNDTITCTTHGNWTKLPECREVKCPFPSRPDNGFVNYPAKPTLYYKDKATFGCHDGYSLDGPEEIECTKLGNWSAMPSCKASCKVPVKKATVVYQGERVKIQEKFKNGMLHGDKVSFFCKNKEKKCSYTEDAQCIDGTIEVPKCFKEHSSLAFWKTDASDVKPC
Experiment: Detection of β2-GPI associated to the cardiolipin aggregates with mouse IgG anti-β2-GPI antibody (ELISA)
Assay type: binding
Details: after washing with 0.05% Tween-20 in PBS
Experimental: Antigen exposing lipid aggregates were prepared according to example 2 by mixing 90% cardiolipin with 10% PE-bio. The lipid aggregates were then adsorbed on a 96-well streptavidin coated ELISA plate (Eurodiagnostica AB) at concentration 90 μg/ml. The plate was incubated for 1 h at room temperature. The plate was washed three times with 0.05% Tween-20 in PBS and then incubated with or without β2-GPI for 30 minutes.
To determine the amount β2-GPI bound to cardiolipin aggregates a mouse IgG anti-β2-GPI antibody was used. This antibody was detected with an alkaline phosphatase conjugated anti-mouse IgG antibody (Sigma-Aldrich).
All the antibodies were diluted in PBS with 1% BSA and incubated for 1 h at RT. The plate was developed with alkaline phosphatase yellow liquid system for ELISA (Sigma-Aldrich) and absorbance 405 nm determined after 10-30 min. Between each incubation step the plate was washed three times with 0.05% Tween-20 in PBS.

B1: β2-GPI: protein incubated with bound cardiolipin aggregates to form the cardiolipin-β2-GPI complex (protein, UniProt P02749 20-345, looked up)
Beta-2-glycoprotein 1: GRTCPKPDDLPFSTVVPLKTFYEPGEEITYSCKPGYVSRGGMRKFICPLTGLWPINTLKCTPRVCPFAGILENGAVRYTTFEYPNTISFSCNTGFYLNGADSAKCTEEGKWSPELPVCAPIICPPPSIPTFATLRVYKPSAGNNSLYRDTAVFECLPQHAMFGNDTITCTTHGNWTKLPECREVKCPFPSRPDNGFVNYPAKPTLYYKDKATFGCHDGYSLDGPEEIECTKLGNWSAMPSCKASCKVPVKKATVVYQGERVKIQEKFKNGMLHGDKVSFFCKNKEKKCSYTEDAQCIDGTIEVPKCFKEHSSLAFWKTDASDVKPC
  β2-GPI bound to cardiolipin aggregates (FIG. 8): remained associated with cardiolipin after washing with 0.05% Tween-20 in PBS
